Measurements as given in the RNAGym collection of RNA variant scans (doi:10.1073/pnas.2313332121).
This sample holds only a part of the variants without activity.

B1: TPR 5TU (parent)
chain: GGAUCUUCUCGAUCUAACAAAAAAGACAAAUCUGCCACAAAGCUUGAGAGCAUCUUCGGAUGCAGAGGCGGCAGCCUUCGGUGGCGCGAUAGCGCCAACGUUCUCAACUAUGACACGCAAAACGCGUGCUCCGUUGAAUGGAGUUUAUCAUG

Variants of: B1
Assay: polymerase ribozyme fitness, log enrichment relative to wild type (log ratio); higher = more active; in vitro selection for triplet polymerase activity
Procedure, shortened: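 Both subunits of a heterodimeric triplet polymerase ribozyme were given their own mutant library, built by PCR and transcribed. Each library was annealed with a biotinylated primer, the partner subunit and triplets, incubated frozen at −7 °C, and its extended constructs gel-excised, captured on streptavidin beads and amplified by RT-PCR, all in one round done in triplicate. Fitness is the logarithm of genotype enrichment relative to wild-type enrichment, with replicates averaged by inverse-variance weighting. That logarithm is base 2, and Illumina-sequenced genotypes needed ≥10 input reads and ≥1 read per output.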

Variant | polymerase ribozyme fitness (log ratio)
GGAUCUUCUCGAUCUAACAAAAAAGACAAAUCUGCCACAAAGCUUGAAAGCAUCUUCGAAUGCAGAGGCGGCAGCCUUCGGUGGCGCCAUAGCGCCAACGUUCUCGACUAUGACACGCAAAACGCGUGCUCCGUUGAAUGGAGUUUACCAUG [G48A G59A G88C A106G U148C] | ≤ -4.2
GGAUCUUCUCGAUCUAACAAAAAAGACAAAUCUGCCACAAAGCUUGAAAGCAUCUUAGGAUGCAGAGGCGGCAGCCUUCGGUGGCGCGAUAACGCCAACGUUCUCAACUAUGACACGCAAAACGCGUGCUCCGUUGAAUGGAGUUUAUCAUG [G48A C57A G92A] | -3.32
GGAUCUUCUCGAUCUAACAAAAAAGACAAAUCUGCCACAAAGCUUGAAAACAUCUGCGGAUGCAGAGGCGGCAGCCUUCGGUGGCGCGAUAGCGCCAACGUUCUCAACUAUGACACGCAAAACGCGUGCUCCGUUGAAUGGAGUUUACCAUG [G48A G50A U56G U148C] | ≤ -4.2
GGAUCUUCUCGAUCUAACAAAAAAGACAAAUCUGCCACAAAGCUUGAAAGCAUCUUCGGAUGCAGAGGCGGCAGCCUUCGGUGGCGCGAUAGCGCCAACGUUCUCGACUAUGACACGCAAAACGCGUGCUCCGUUGAAUGGAGUUUAUCAUG [G48A A106G] | -1.77
GGAUCUUCUCGAUCUAACAAAAAAGACAAAUCUGCCACAAAGCUUGAAAGCAUCUUCGAAUGCAGAGGCGGCAGCCUUCGGUGGCACGAUAGCGCCAACGUUCGCAACUUUGACACGCAAAACGCGUGCUCCGUUGAAUGGAGUUUAUCAUG [G48A G59A G86A U104G A110U] | ≤ -4.2
GGAUCUUCUCGAUCUAACAAAAAAGACAAAUCUGCCACAAAGCUUGAAAGCAUCUUCGGGUGCAGAGGCGGCAGCCUUCGGUGUCGCGAUAGCGCCAACGUUCUCAACUAUGACACGCAAAACGCGUGCUCCGUUGAAUGGAGUUUAUCAUG [G48A A60G G84U] | -1.73
GGAUCUUCUCGAUCUAACAAAAAAGACAAAUCUGCCACAAAGCUUGAAAACAUAUUCGGAUGCAGAGGCGGCAGCCUUCGGUGGCGCGAUAGGGCCAACGUUCACAACUAUGACACGCAAAACGCGUGCUCCGUUGAAUGGAGUUUAUCAUG [G48A G50A C54A C93G U104A] | ≤ -4.2
GGAUCUUCUCGAUCUAACAAAAAAGACAAAUCUGCCACAAAGCUUGAAAGCAUCUUCGGAUGCAGAGGCGGCAGCCUUCGGUGGCGUGAUUGUGCCAACGUUCUCAACUAUGACACGCAAAACGCGUGCUCCGUUGAAUGGAGUUUAUCAUG [G48A C87U A91U C93U] | ≤ -4.2
GGAUCUUCUCGAUCUAACAAAAAAGACAAAUCUGCCACAAAGCUUGAAAGCAUCUUGGGGUGAAGAGGCGGCAGCCUUCGGUGGCGCGAUAGCGCCAAGGUUCUCAACUAUGACACGCAAAACGCGUGCUCCGUUGAAUGGAGUUUAUCAUG [G48A C57G A60G C63A C99G] | ≤ -4.2
GGAUCUUCUCGAUCUAACAAAAAAGACAAAUCUGCCACAAAGCUUGAAAGCAUUUUCGGAUGCAGAGGCGGCAGCCUUCGGUGGCGCGAUAGCCCCAACGUUCUCAACUAUGACACGCAAAACGCGUGCUCCGUUGAAUGGAGUUUAUCAUG [G48A C54U G94C] | -1.21
GGAUCUUCUCGAUCUAACAAAAAAGACAAAUCUGCCACAAAGCUUGAAAGCAUCUUCGGAUGCAGAGGCGGCAGCAUUCGGUGGCGCGAUAGCCCCAACGUUCUCGACUAUGACACGCAAAACGCGAGCUCCGUUGAAUGCAGUUUAUCAUG [G48A C76A G94C A106G U127A G141C] | ≤ -4.2
GGAUCUUCUCGAUCUAACAAAAAAGACAAAUCUGCCACAAAGCUUGAAAGUAUAUUCGGAUGCAGAGGCGGCAGCCUUCGGGGGCGCGAUAGCGCCAACGUUCUCAACUAUGACACGCAUAACGCGUGCUCCGUUGAAUGGAGUUUAUCAUG [G48A C51U C54A U82G A120U] | -3.66
GGAUCUUCUCGAUCUAACAAAAAAGACAAAUCUGCCACAAAGCUUGAAAGCAUCUUAGGAUGCAGAGGCGGCAGCCUUCGGUGGCGCGAUAGCGCCAACGUUCUCAACUAUGACACGCAAAACGUGUGCUCCGUUGAAUGGAGUUUAUCAUG [G48A C57A C125U] | -1.74
GGAUCUUCUCGAUCUAACAAAAAAGACAAAUCUGCCACAAAGCUUGAAAGCAUCUUCGGAUGCAGAGGCGGCAGCCUUCGGUGGCGCGAUAGCGCCAACGUUCUCAACUAUGACACGCAAAACGCGUGCUCCGUUGAAUGGAGUUUAUUAUG [G48A C149U] | -1.46
GGAUCUUCUCGAUCUAACAAAAAAGACAAAUCUGCCACAAAGCUUGAAAGCAUCUUCGGAUGCAGAGGCGGCAGCCUUCGGUGGUGCGAUAGCGCCUACGUUCUCAACUAUGACACGCAAAACGCGUGCCCCGUUGAAUGGAGUUUAUCUUG [G48A C85U A97U U130C A150U] | ≤ -4.2
GGAUCUUCUCGAUCUAACAAAAAAGACAAAUCUGCCACAAAGCUUGAAAGCAUCUUCGGAUGCAGAGGCGGCAGCCUUCGGUGGCGUGAUAGCGCCAACGUUCUCAACUAUGACACGCAAAACGCGUGCUCCGUUGAAUGGAGUUUAUCAUG [G48A C87U] | -0.447
GGAUCUUCUCGAUCUAACAAAAAAGACAAAUCUGCCACAAAGCUUGAAAGCAUCUUUGGAUGCAGAGGCGGCAGCCUUCGGUCGCGCGAUAGCGCCAACGCUCUCAACUAUGACACGCAAAACGCGUGCUCCGUUGAAUGGAGUUUAUCAUG [G48A C57U G83C U101C] | -2.63
GGAUCUUCUCGAUCUAACAAAAAAGACAAAUCUGCCACAAAGCUUGAAAGCAUCUUCGGAUGCAGAGGCGGGAGCCUUCGGUGGCGCGAUAGCGCCAACGUUCUCAACUAUGACACGCAAAACGCGUGCUCCGUUGAAUGGAGUUUAUCAUG [G48A C72G] | ≤ -4.2
GGAUCUUCUCGAUCUAACAAAAAAGACAAAUCUGCCACAAAGCUUGAAAGCAUCUUCGGAUGCAGAGGCGGCAGCCUUCGGUGGCGCGAUAGCGCCAAUGUUCUCAACUAAGACACGCAAAACGCGUGCUCCGUUGGAUGGAGUUUCUCAUG [G48A C99U U111A A137G A147C] | ≤ -4.2
